The source of these data is paper PMC8318587, “Structure-guided microbial targeting of antistaphylococcal prodrugs” (eLife, 2021).

Assay in all cases: Esterase substrate specificity, fluorogenic SAR library kinetics
Holding throughout (format): biochemical, Staphylococcus aureus
Conditions in all cases: other: SaGloB, fluorogenic ester substrate; pH 7.5; 37.0 °C

Substrate in series [1]: C=CCOC(C)C(=O)OCOc1ccc2c(c1)Oc1cc(OCOC(=O)C(C)OCC=C)ccc1C21OC(=O)c2ccccc21
Here is the method: (§1) Kinetic measurements were performed according to [White et al., 2018] with minor variation. Lyophilized human and mouse sera were resuspended according to manufacturer instructions in highly pure, filtered water at protein concentrations of 85 mg/mL and 70 mg/mL, respectively. One milliliter of resuspended serum was added to a 24 mL mastermix for a final concentration of 31.25 mM Tris pH 7.5, 312.5 mM NaCl, 1.25 mM MgCl2, 12.5% glycerol, and 3.4 mg/mL or 2.8 mg/mL protein for human and mouse serum, respectively. For purified proteins, 5 mL of a 75 µg/mL stock was added to yield a 20 mL mastermix containing 31.25 mM Tris pH 7.5, 312.5 mM NaCl, 1.25 mM MgCl2, 12.5% glycerol, and 18.75 µg/mL protein. Mastermix was stored on ice when not in use. Twenty microliters of mastermix was transferred to a black, 96-well half area microplate (Corning, CLS3993) and prewarmed at 37°C. Fluorogenic substrates were prepared as 10 mM stock solutions in 100% DMSO and were diluted in water to a starting concentration of 500 µM. Enzyme catalyzed substrate hydrolysis was initiated by addition of 5 µL substrate dilution in technical duplicate to the prewarmed serum or protein solution. Final assay concentrations were as follows: 25 mM Tris pH 7.5, 250 mM NaCl, 1 mM MgCl2, 10% glycerol, and protein at a concentration of 2.72 mg/mL (human serum), 2.24 mg/mL (mouse serum), or 15 µg/mL (FrmB, GloB). The resulting change in fluorescence (λex = 485 nm, λem = 520 nm) was followed for 15 min at 37°C, collecting data every 30 s on a FLUOstar Omega microplate reader (BMG Labtech). Fluorescence measurements were converted to molar concentrations using a fluorescein standard curve (2.5 nmol–0.6 pmol). The initial rates of reaction were measured three independent times with two technical replicates per measurement and fit to a line using GraphPad Prism (GraphPad Software, La Jolla, CA). Initial rates of reaction were plotted versus the concentration of substrate and fit to a standard Michaelis–Menten equation (v = Vmax[S]/(Km + [S])), yielding estimates of Vmax and Km. Values for kcat and kcat/Km were calculated based on amount of enzyme added when purified enzymes were used.

Substrate in series [2]: CC(C)OCC(=O)OCOc1ccc2c(c1)Oc1cc(OCOC(=O)COC(C)C)ccc1C21OC(=O)c2ccccc21
Here is the method: as §1

Substrate in series [3]: CCCC(=O)OCOc1ccc2c(c1)Oc1cc(OCOC(=O)CCC)ccc1C21OC(=O)c2ccccc21
Here is the method: as §1

Substrate in series [4]: CCCCC(=O)OCOc1ccc2c(c1)Oc1cc(OCOC(=O)CCCC)ccc1C21OC(=O)c2ccccc21
Here is the method: as §1

Substrate in series [5]: CCOC(C)C(=O)OCOc1ccc2c(c1)Oc1cc(OCOC(=O)C(C)OCC)ccc1C21OC(=O)c2ccccc21
As to the method:
as §1

Substrate in series [6]: COCCC(=O)OCOc1ccc2c(c1)Oc1cc(OCOC(=O)CCOC)ccc1C21OC(=O)c2ccccc21
As to the method: as §1

B1: SaGloB (Staphylococcus aureus subsp. aureus str. Newman) (protein)
chain: MRISSLTLGLVDTNTYFIENDKAVILIDPSGESEKIIKKLNQINKPLKAILLTHAHFDHIGAVDDIVDRFDVPVYMHEAEFDFLKDPVKNGADKFKQYGLPIITSKVTPEKLNEGSTEIEGFKFNVLHTPGHSPGSLTYVFDEFAVVGDTLFNNGIGRTDLYKGDYETLVDSIQDKIFELEGDLPLFPGHGPYTTVDDEQLNPFLHG
On to B1, for which the Michaelis-Menten constant (Km) is 36.91 µM in series [1]; 12.0 µM in series [2]; 6.23 µM in series [3]; 18.33 µM in series [4]; 15.5 µM in series [5]; 18.0 µM in series [6]. For the same protein, the Vmax in series [1] turned out to be 1.04 pmol*min-1*μg protein-1; in series [2] it was 2.91 pmol*min-1*μg protein-1; in series [3], 0.497 pmol*min-1*μg protein-1; in series [4], 0.292 pmol*min-1*μg protein-1; in series [5] it was 1.01 pmol*min-1*μg protein-1; in series [6] it was 1.39 pmol*min-1*μg protein-1. The kcat is reported as 0.156 10-3 s-1 in series [1]; 0.435 10-3 s-1 in series [2]; 0.0744 10-3 s-1 in series [3]; 0.0436 10-3 s-1 in series [4]; 0.151 10-3 s-1 in series [5]; 0.208 10-3 s-1 in series [6]. Besides, the catalytic efficiency (kcat/Km) amounted to 4.21 M⁻¹ s⁻¹ in series [1]; 36.1 M⁻¹ s⁻¹ in series [2]; 11.9 M⁻¹ s⁻¹ in series [3]; 2.38 M⁻¹ s⁻¹ in series [4]; 9.71 M⁻¹ s⁻¹ in series [5]; 11.5 M⁻¹ s⁻¹ in series [6].
